Data from article PMC4474532.

B1: human PERK luminal domain (residues 105–403) [human] / itself (parent)
chain: LVIISTLDGRIAALDPENHGKKQWDLDVGSGSLVSSSLSKPEVFGNKMIIPSLDGALFQWDQDRESMETVPFTVESLLESSYKFGDDVVLVGGKSLTTYGLSAYSGKVRYICSALGCRQWDSDEMEQEEDILLLQRTQKTVRAVGPRSGNEKWNFSVGHFELRYIPDMETRAGFIESTFKPNENTEESKIISDVEEQEAAIMDIVIKVSVADWKVMAFSKKGGHLEWEYQFCTPIASAWLLKDGKVIPISLFDDTSYTSNDDVLEDEEDIVEAARGATENSVYLGMYRGQLYLQSSVRI

Variants of: B1
Test: sedimentation velocity AUC
Settings: with itself

Variant | screen value (parent: 0) | screen value (parent: 0.73)
chain 1 A274N | -52% | 0.35
chain 1 L293N | -61% | 0.28
chain 1 L291N | -57% | 0.32
chain 1 L284N | -58% | 0.31
